Laboratory results published in publication PMC6913123.

Molecular target: T1, DDX21 (Homo sapiens) (UniProt Q9NR30)
T1 sequence: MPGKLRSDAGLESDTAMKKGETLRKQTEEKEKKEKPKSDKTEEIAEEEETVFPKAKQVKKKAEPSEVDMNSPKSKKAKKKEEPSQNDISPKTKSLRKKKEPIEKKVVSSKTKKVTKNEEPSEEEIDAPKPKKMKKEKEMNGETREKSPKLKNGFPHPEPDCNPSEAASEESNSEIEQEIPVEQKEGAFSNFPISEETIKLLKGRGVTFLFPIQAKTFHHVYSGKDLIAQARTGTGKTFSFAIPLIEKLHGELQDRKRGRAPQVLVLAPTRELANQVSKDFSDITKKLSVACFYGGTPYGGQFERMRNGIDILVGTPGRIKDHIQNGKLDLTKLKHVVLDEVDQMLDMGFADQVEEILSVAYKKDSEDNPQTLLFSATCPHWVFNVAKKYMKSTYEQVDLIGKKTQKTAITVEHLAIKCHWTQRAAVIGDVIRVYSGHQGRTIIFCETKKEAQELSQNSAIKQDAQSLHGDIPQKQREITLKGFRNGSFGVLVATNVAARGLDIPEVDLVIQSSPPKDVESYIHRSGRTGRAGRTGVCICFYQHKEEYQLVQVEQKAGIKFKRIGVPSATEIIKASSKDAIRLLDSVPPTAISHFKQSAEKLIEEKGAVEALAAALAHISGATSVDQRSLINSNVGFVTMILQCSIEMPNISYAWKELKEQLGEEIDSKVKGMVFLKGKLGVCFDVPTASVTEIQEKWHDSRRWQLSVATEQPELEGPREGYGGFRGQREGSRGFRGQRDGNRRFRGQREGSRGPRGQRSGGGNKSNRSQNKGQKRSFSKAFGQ
Experiment: EMSA

AGUGGCAUAAACAUGGGCUUUGGCGUCAGACAGCCCUGAGCGGGGCCCCAUUGCCCCACCCCCGAGGAAGGCGAGGGGGGGUGGCAGGGGGCUGCGGAAAGGGGCUGGGCUGGGUUGGGCUGUCUGCAGCUCUAGUCCAGGAGGCUGAGACUUCGAGAGGGACUUAGAGAAGGCAGACGCAUCCCGAACUCGCUGGAGGACAAGGCUCAGCUCUUGCCAGGCCAAAUUGAGAC [MAGED2 TV2 5'-UTR]
Kd: 100 nM
